The target in test [1] is T1, recombinant human DKK1 (human, UniProt O94907 32-266).
T1 sequence: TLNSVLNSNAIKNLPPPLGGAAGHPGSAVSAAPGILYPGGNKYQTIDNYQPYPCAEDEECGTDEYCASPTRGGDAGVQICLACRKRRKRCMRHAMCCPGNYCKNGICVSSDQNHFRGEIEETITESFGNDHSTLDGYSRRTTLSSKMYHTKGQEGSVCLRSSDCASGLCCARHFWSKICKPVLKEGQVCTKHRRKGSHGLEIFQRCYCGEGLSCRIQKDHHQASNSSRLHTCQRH
Put plainly: cell-based or functional assay.

The target of the next test is T2, cynomolgus DKK1 (cynomolgus monkey (Macaca fascicularis), UniProt A0A7N9IE82 32-266).
T2 construct: also called cyno DKK1; monkey DKK1 (Novartis)
T2 sequence: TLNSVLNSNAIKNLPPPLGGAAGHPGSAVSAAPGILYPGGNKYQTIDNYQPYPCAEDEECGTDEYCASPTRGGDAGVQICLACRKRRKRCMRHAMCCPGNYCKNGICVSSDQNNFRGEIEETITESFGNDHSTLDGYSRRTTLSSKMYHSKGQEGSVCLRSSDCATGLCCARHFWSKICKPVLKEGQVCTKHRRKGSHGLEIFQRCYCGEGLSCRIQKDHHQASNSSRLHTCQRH
Kind of test: solution equilibrium titration (SET), ECL (BioVeris), Fab. Here is the method:
(§1) Electrochemiluminescence (ECL) based affinity determination in solution and data evaluation are basically performed as described by Haenel et al., 2005. […] Subsequently, the concentration of unbound Fab is quantified by ECL detection using the M-SERIES® 384 analyzer (BioVeris Europe).
(§2) Affinities are calculated according to Haenel et al., 2005 Anal Biochem 339.1:182-184.

Test [2] deals with T1, recombinant human DKK1. The description is as above. Here is the method:
as §1, §2

The next test concerns the target T3, mouse DKK1 (R&D Systems) (mouse, UniProt O54908 32-272).
T3 construct: Bought protein
T3 sequence (looked up): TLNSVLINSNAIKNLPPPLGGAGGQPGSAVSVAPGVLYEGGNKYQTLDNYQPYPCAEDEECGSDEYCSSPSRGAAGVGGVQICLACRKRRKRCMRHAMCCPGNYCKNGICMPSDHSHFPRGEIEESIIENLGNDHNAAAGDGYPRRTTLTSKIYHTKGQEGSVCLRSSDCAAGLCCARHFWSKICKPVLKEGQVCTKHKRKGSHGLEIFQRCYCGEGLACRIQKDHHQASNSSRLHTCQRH
The description is as above. Here is the method:
as §1, §2

The next test has as its target T4, biotinylated human DKK1 (human, UniProt O94907 32-266, biotinylated (sites not given)).
T4 construct: also called biotinylated DKK1; human recombinant, biotinylated DKK1
T4 sequence: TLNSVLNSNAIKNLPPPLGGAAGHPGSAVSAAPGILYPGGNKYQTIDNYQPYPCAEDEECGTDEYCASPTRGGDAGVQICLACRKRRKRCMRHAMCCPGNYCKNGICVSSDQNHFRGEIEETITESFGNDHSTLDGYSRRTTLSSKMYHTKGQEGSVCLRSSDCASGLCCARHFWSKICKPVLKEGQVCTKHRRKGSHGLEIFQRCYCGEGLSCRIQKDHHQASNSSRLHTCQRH
Kind of test: ELISA, biotinylated DKK1 on Neutravidin plates, Fab 1 ug/ml, anti-FLAG-AP detection. Here is the method:
Binding specificity of the matured Fabs in the presence of 50% human serum (HS) is determined. […] After coating of the antigen, wells are blocked with TBS/0.05% Tween (TBS-T) supplemented with 1% BSA for 1 h at room temperature. Purified Fabs described above are diluted either in TBS/4% BSA or TBS/50% HS at a final concentration of 1 μg/ml, added to the coated and blocked wells and the plates are incubated for 1 h at room temperature. For detection, an anti-FLAG alkaline phosphatase (AP)-conjugated antibody (1:5000 dilution in TBST) and the fluorogenic substrate AttoPhos (Roche) are used. After each incubation, the wells of the microtiter plates are washed with TBST five times, except after the final incubation step with the labeled secondary antibody when wells are washed three times.
The fluorescence is measured in a TECAN Spectrafluor plate reader.

The target in another test is T5, DKK1-APP (human, UniProt O94907 32-266).
T5 sequence: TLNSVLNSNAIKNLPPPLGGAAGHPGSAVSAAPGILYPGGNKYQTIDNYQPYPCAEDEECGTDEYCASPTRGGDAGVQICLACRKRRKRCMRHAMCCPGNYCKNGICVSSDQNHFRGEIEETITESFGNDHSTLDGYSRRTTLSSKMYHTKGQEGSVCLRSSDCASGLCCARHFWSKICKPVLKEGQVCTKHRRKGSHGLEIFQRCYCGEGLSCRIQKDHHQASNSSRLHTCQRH
Kind of test: cell-based or functional assay.

B1: MOR04947 (Fab, V domains shown)
VH: QVQLVQSGAEVKKPGESLKISCKGSGYSFTNYYIGWVRQMPGKGLEWMGIIVPGTSYTIYSPSFQGQVTISADKSISTAYLQWSSLKASDTAMYYCARGIPFRMRGFDYWGQGTLVTVSS
VL: DIVLTQPPSVSGAPGQRVTISCSGSSSNIGSSFVNWYQQLPGTAPKLLIGNNSNRPSGVPDRFSGSKSGTSASLAITGLQSEDEADYYCASFDMGSPNVVFGGGTKLTVLG
A word on the Kd: it is the concentration at which binding is half-saturated. Take B1: in the test with recombinant human DKK1 [1], the “TCF/LEF luc assay w/Kremen: EC50” value was 1.7 nM. The Kd amounted to 0.058 nM in the test with cynomolgus DKK1, 0.032 nM with recombinant human DKK1 [2] and 0.03 nM with mouse DKK1 (R&D Systems).

B2: MOR04952 (Fab, V domains shown)
VH: QVQLVESGGGLVQPGGSLRLSCAASGFTFSSYWMSWVRQAPGKGLEWVSVISSDSSSTYYADSVKGRFTISRDNSKNTLYLQMNSLRAEDTAVYYCARHGIDFDHWGQGTLVTVSS
VL: DIALTQPASVSGSPGQSITISCTGTSSDLGGYNYVSWYQQHPGKAPKLMIYDVNNRPSGVSNRFSGSKSGNTASLTISGLQAEDEADYYCQSYDSPTDSVVFGGGTKLTVLG
Take B2: in the test with biotinylated human DKK1, the “Binding activity w/50% Human serum vs 4% BSA (%)” value came to 100%. The “TCF/LEF luc assay w/Kremen: EC50” value in the test with recombinant human DKK1 [1] was determined as 0.6 nM. Further, the dissociation constant Kd turned out to be 0.058 nM in the test with cynomolgus DKK1, 0.1 nM in the test with recombinant human DKK1 [2] and 0.071 nM in the test with mouse DKK1 (R&D Systems). The “Luciferase reporter assay w/o Kremen; Activity in 15% Human serum (%)” value (“Luciferase reporter assay w/o Kremen … (%)” below) with DKK1-APP came to 60%.

B3: MOR04920 (Fab, V domains shown)
VH: QVQLVESGGGLVQPGGSLRLSCAASGFTFSSYWMSWVRQAPGKGLEWVSSIEHKDAGYTTWYAAGVKGRFTISRDNSKNTLYLQMNSLRAEDTAVYYCARHGIDFDHWGQGTLVTVSS
VL: DIALTQPASVSGSPGQSITISCTGTSSDLGGYNYVSWYQQHPGKAPKLMIYDVNNRPSGVSNRFSGSKSGNTASLTISGLQAEDEADYYCQSYASGNTKVVFGGGTKLTVLG
Regarding B3, in the test with biotinylated human DKK1, the “Binding activity w/50% Human serum vs 4% BSA (%)” value stood at 90%. Further, the “TCF/LEF luc assay w/Kremen: EC50” value with recombinant human DKK1 [1] stood at 1.8 nM. The results for the Kd with cynomolgus DKK1, in the test with recombinant human DKK1 [2] and with mouse DKK1 (R&D Systems) were 0.05 nM, 0.053 nM and 0.04 nM, respectively. Besides, the “Luciferase reporter assay w/o Kremen … (%)” value with DKK1-APP is 75%.

B4: MOR04910 (Fab, V domains shown)
VH: QVQLVESGGGLVQPGGSLRLSCAASGFTFSSYWMSWVRQAPGKGLEWVSGISYSGSNTHYADSVKGRFTISRDNSKNTLYLQMNSLRAEDTAVYYCARMGIDLDYWGQGTLVTVSS
VL: DIALTQPASVSGSPGQSITISCTGTSSDVGGFNYVSWYQQHPGKAPKLMIHDGSNRPSGVSNRFSGSKSGNTASLTISGLQAEDEADYYCQSWDVSPITAVFGGGTKLTVLG
notes: also called anti-DKK1 FAb MOR04910
On to B4, for which the “Binding activity w/50% Human serum vs 4% BSA (%)” value with biotinylated human DKK1 was determined as 84%. In addition, the “TCF/LEF luc assay w/Kremen: EC50” value with recombinant human DKK1 [1] turned out to be 0.3 nM. Further, the equilibrium dissociation constant (Kd) with cynomolgus DKK1 turned out to be 0.037 nM; with recombinant human DKK1 [2], 0.024 nM; with mouse DKK1 (R&D Systems), 0.042 nM. Besides, in the test with DKK1-APP, the “Luciferase reporter assay w/o Kremen … (%)” value is 90%.

B5: MOR04945 (Fab, V domains shown)
VH: QVQLVESGGGLVQPGGSLRLSCAASGFTFSSYWMSWVRQAPGKGLEWVSVISSDSSSTYYADSVKGRFTISRDNSKNTLYLQMNSLRAEDTAVYYCARHGIDFDHWGQGTLVTVSS
VL: DIALTQPASVSGSPGQSITISCTGTSSDLGGYNYVSWYQQHPGKAPKLMIYDVNNRPSGVSNRFSGSKSGNTASLTISGLQAEDEADYYCQTYDQIKLSAVFGGGTKLTVLG
For B5, the “Binding activity w/50% Human serum vs 4% BSA (%)” value in the test with biotinylated human DKK1 came out at 89%. Also, the “TCF/LEF luc assay w/Kremen: EC50” value with recombinant human DKK1 [1] came out at 0.5 nM. The results for the Kd in the test with cynomolgus DKK1, with recombinant human DKK1 [2] and with mouse DKK1 (R&D Systems) were 0.08 nM, 0.069 nM and 0.074 nM, respectively. Further, the “Luciferase reporter assay w/o Kremen … (%)” value in the test with DKK1-APP is 74%.

B6: MOR04948 (Fab, V domains shown)
VH: QVQLVESGGGLVQPGGSLRLSCAASGFTFSSYWMSWVRQAPGKGLEWVSGISYSGSNTHYADSVKGRFTISRDNSKNTLYLQMNSLRAEDTAVYYCARMGIDLDYWGQGTLVTVSS
VL: DIALTQPASVSGSPGQSITISCTGTSSDVGGFNYVSWYQQHPGKAPKLMIHDGSNRPSGVSNRFSGSKSGNTASLTISGLQAEDEADYYCQTWDSLSFFVFGGGTKLTVLG
Turning to B6, in the test with biotinylated human DKK1, the “Binding activity w/50% Human serum vs 4% BSA (%)” value turned out to be 100%. Further, the “TCF/LEF luc assay w/Kremen: EC50” value with recombinant human DKK1 [1] was 0.5 nM. For the same molecule, the results for the Kd with cynomolgus DKK1, with recombinant human DKK1 [2] and with mouse DKK1 (R&D Systems) were 0.067 nM, 0.057 nM and 0.065 nM, respectively. Further, the “Luciferase reporter assay w/o Kremen … (%)” value in the test with DKK1-APP amounted to 70%.

B7: MOR04946 (Fab, V domains shown)
VH: QVQLVESGGGLVQPGGSLRLSCAASGFTFNNYGMTWVRQAPGKGLEWVSGISGSGSYTYYADSVKGRFTISRDNSKNTLYLQMNSLRAEDTAVYYCARTIYMDYWGQGTLVTVSS
VL: DIVLTQSPATLSLSPGERATLSCRASQNLFSPYLAWYQQKPGQAPRLLIYGASNRATGVPARFSGSGSGTDFTLTISSLEPEDFAVYYCQQYLTLPLTFGQGTKVEIKR
For B7, the “Binding activity w/50% Human serum vs 4% BSA (%)” value with biotinylated human DKK1 is 93%. Also, in the test with recombinant human DKK1 [1], the “TCF/LEF luc assay w/Kremen: EC50” value amounted to 0.2 nM. Moreover, the Kd with cynomolgus DKK1 was 0.036 nM; with recombinant human DKK1 [2], 0.025 nM; in the test with mouse DKK1 (R&D Systems), 0.041 nM. Moreover, the “Luciferase reporter assay w/o Kremen … (%)” value with DKK1-APP is 60%.

B8: MOR04913 (Fab, V domains shown)
VH: QVQLVESGGGLVQPGGSLRLSCAASGFTFNNYGMTWVRQAPGKGLEWVSGISGSGSYTYYADSVKGRFTISRDNSKNTLYLQMNSLRAEDTAVYYCARTIYMDYWGQGTLVTVSS
VL: DIVLTQSPATLSLSPGERATLSCRASQNLFSPYLAWYQQKPGQAPRLLIYGASNRATGVPARFSGSGSGTDFTLTISSLEPEDFAVYYCQQYMTLPLTFGQGTKVEINR
On to B8, for which the “Binding activity w/50% Human serum vs 4% BSA (%)” value in the test with biotinylated human DKK1 stood at 89%. For the same molecule, in the test with recombinant human DKK1 [1], the “TCF/LEF luc assay w/Kremen: EC50” value was 0.5 nM. The Kd with cynomolgus DKK1 turned out to be 0.051 nM; with recombinant human DKK1 [2], 0.038 nM; with mouse DKK1 (R&D Systems), 0.044 nM. In addition, the “Luciferase reporter assay w/o Kremen … (%)” value in the test with DKK1-APP was 88%.

These data come from patent US20120023600A1 (Novartis, published 2012).
